Residue numbers refer to the chain shown, from its start. Numbers in names are those of the source.
T1: human CD81 on CD81-expressing cells (Jurkat E6.1, human PBMC, Ramos) (human, UniProt P60033 1-236)
T1 sequence: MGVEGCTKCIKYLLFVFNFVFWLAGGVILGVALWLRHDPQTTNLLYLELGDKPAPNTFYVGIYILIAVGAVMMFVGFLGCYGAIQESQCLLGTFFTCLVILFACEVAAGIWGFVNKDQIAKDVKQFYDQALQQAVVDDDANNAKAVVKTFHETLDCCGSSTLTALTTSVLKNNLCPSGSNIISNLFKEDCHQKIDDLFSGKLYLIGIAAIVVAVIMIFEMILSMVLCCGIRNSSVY

T2: human CD81 mutant A164V (human, UniProt P60033 1-236, limits assumed)
T2 construct: as m30; not shown: C-terminal V5 and 6xHis tags
T2 sequence: T1 sequence with A164V

T3: human CD81 mutant V169L (human, UniProt P60033 1-236, limits assumed)
T3 construct: as m30; not shown: C-terminal V5 and 6xHis tags
T3 sequence: T1 sequence with V169L

T4: human CD81 mutant V169A (human, UniProt P60033 1-236, limits assumed)
T4 construct: as m30; not shown: C-terminal V5 and 6xHis tags
T4 sequence: T1 sequence with V169A

T5: human CD81 mutant V135A (human, UniProt P60033 1-236, limits assumed)
T5 construct: as m30; not shown: C-terminal V5 and 6xHis tags
T5 sequence: T1 sequence with V135A

T6: human CD81 mutant A164T (human, UniProt P60033 1-236, limits assumed)
T6 construct: as m30; not shown: C-terminal V5 and 6xHis tags
T6 sequence: T1 sequence with A164T

T7: human CD81 mutant L165A (human, UniProt P60033 1-236, limits assumed)
T7 construct: as m30; not shown: C-terminal V5 and 6xHis tags
T7 sequence: T1 sequence with L165A

T8: human CD81 mutant I194A (human, UniProt P60033 1-236, limits assumed)
T8 construct: as m30; not shown: C-terminal V5 and 6xHis tags
T8 sequence: T1 sequence with I194A

T9: human CD81 mutant D137A (human, UniProt P60033 1-236, limits assumed)
T9 construct: as m30; not shown: C-terminal V5 and 6xHis tags
T9 sequence: T1 sequence with D137A

B1: 001-B06 (antibody, human IgG4 S228P, lambda, V domains shown)
VH: EVQLLESGGGLVQPGGSLRLSCAASGFTFSSNYMSWVRQAPGKGLEWVSYISSSSTYTDYADSVKGRFTISRDNSKNTLYLQMNSLRAEDTAVYYCARYSYGRDTFDYWGQGTLVTVSS
VL: QSVLTQPFSASGTPGQRVTISCTGSTSNIGAGYDTHWYQQLPGTAPKLLIYGNSNRPSGVPDRFSGSKSGTSASLAISGLRPEDEADYYCQSYDTSLSVWVFGGGTKLTVLG
notes: IgG4 S228P
B2: 002-B07 (antibody, human IgG4 S228P, lambda, V domains shown)
VH: B1 VH with T105N
VL: B1 VL with F8S, P82S, S96N, V99G
notes: IgG4 S228P
B3: 002-H02 (antibody, human IgG4 S228P, lambda, V domains shown)
VH: B1 VH with T105S
VL: B1 VL with F8S, D34G, P82S, S96N
notes: IgG4 S228P
B4: 003-A11 (antibody, human IgG4 S228P, lambda, V domains shown)
VH: B1 VH with S30G, T105N
VL: B1 VL with F8P, P82S, S96N, V99G
notes: IgG4 S228P
B5: 002-C09 (antibody, human IgG4 S228P, lambda, V domains shown)
VH: B1 VH with T105N
VL: B1 VL with F8A, D34G, Q40R, P82S, S96N, V99G
notes: IgG4 S228P
B6: 002-D08 (antibody, human IgG4 S228P, lambda, V domains shown)
VH: B1 VH with A24T, T28P, T58S, T69S, T105N
VL: B1 VL with F8S, D34A, P82S, S96N
notes: IgG4 S228P
B7: 002-D10 (antibody, human IgG4 S228P, lambda, V domains shown)
VH: B1 VH with L45P, T105N
VL: B1 VL with F8S, I77V, P82S, D87E, S96N, V99G
notes: IgG4 S228P
B8: 002-D03 (antibody, human IgG4 S228P, lambda, V domains shown)
VH: B1 VH with S30R, T105N
VL: B1 VL with F8P, P82S, S96N
notes: IgG4 S228P
B9: 002-H03 (antibody, human IgG4 S228P, lambda, V domains shown)
VH: B1 VH with T105N
VL: B1 VL with F8S, L48P, P82S, S96N, V99A
notes: IgG4 S228P
B10: 002-F07 (antibody, human IgG4 S228P, lambda, V domains shown)
VH: B1 VH with T105S
VL: B1 VL with Y33F, S72T, P82S, S96N
notes: IgG4 S228P

Target: T1, human CD81 on CD81-expressing cells …
Test: cell-based or functional assay

| Jurkat chemotaxis (% of control IgG4) at 0.001 µg/mL | Jurkat chemotaxis (% of control IgG4) at 0.01 µg/mL | Jurkat chemotaxis (% of control IgG4) at 0.1 µg/mL | Jurkat chemotaxis (% of control IgG4) at 1 µg/mL | Jurkat chemotaxis (% of control IgG4) at 10 µg/mL | Binder |
| --- | --- | --- | --- | --- | --- |
| 102% | 91% | 35% | 3% | 3% | B1 |
| 92% | 87% | 8% | 4% | -9% | B2 |
| 87% | 85% | -1% | -10% | -2% | B3 |
| 91% | 86% | 16% | 1% | 2% | B4 |
| 101% | 82% | 15% | -1% | 11% | B5 |
| 101% | 105% | 67% | 19% | 14% | B6 |
| 97% | 87% | 34% | 6% | 10% | B7 |
| 105% | 91% | 25% | 14% | 16% | B8 |
| 106% | 89% | 13% | 0% | -3% | B9 |
| 101% | 88% | 38% | 13% | 15% | B10 |

Target: T2, human CD81 mutant A164V
Test: ELISA

| relative binding affinity | Binder |
| --- | --- |
| < 20% | B2 |
| < 20% | B3 |
| < 20% | B4 |
| < 20% | B5 |
| < 20% | B6 |
| < 20% | B7 |
| < 20% | B8 |
| < 20% | B9 |
| < 20% | B10 |

Target: T3, human CD81 mutant V169L
Test: ELISA

| relative binding affinity | Binder |
| --- | --- |
| < 20% | B2 |
| < 20% | B3 |
| < 20% | B4 |
| < 20% | B5 |
| < 20% | B7 |
| < 20% | B8 |
| < 20% | B10 |

Target: T4, human CD81 mutant V169A
Test: ELISA

| relative binding affinity | Binder |
| --- | --- |
| < 20% | B1 |
| < 20% | B2 |
| < 20% | B3 |
| < 20% | B4 |
| < 20% | B5 |
| < 20% | B6 |
| < 20% | B7 |
| < 20% | B8 |
| < 20% | B9 |
| < 20% | B10 |

Target: T5, human CD81 mutant V135A
Test: ELISA

| relative binding affinity | Binder |
| --- | --- |
| < 20% | B2 |
| < 20% | B3 |
| < 20% | B4 |
| < 20% | B5 |
| < 20% | B6 |
| < 20% | B7 |
| < 20% | B8 |
| < 20% | B9 |
| < 20% | B10 |

Target: T6, human CD81 mutant A164T
Test: ELISA

| relative binding affinity | Binder |
| --- | --- |
| < 20% | B2 |
| < 20% | B3 |
| < 20% | B4 |
| < 20% | B5 |
| < 20% | B6 |
| < 20% | B7 |
| < 20% | B8 |
| < 20% | B9 |
| < 20% | B10 |

Target: T7, human CD81 mutant L165A
Test: ELISA

| relative binding affinity | Binder |
| --- | --- |
| < 20% | B2 |
| < 20% | B3 |
| < 20% | B4 |
| < 20% | B5 |
| < 20% | B6 |
| < 20% | B7 |
| < 20% | B8 |
| < 20% | B9 |
| < 20% | B10 |

Target: T8, human CD81 mutant I194A
Test: ELISA

| relative binding affinity | Binder |
| --- | --- |
| < 20% | B4 |
| < 20% | B10 |

Target: T9, human CD81 mutant D137A
Test: ELISA

| relative binding affinity | Binder |
| --- | --- |
| < 20% | B8 |
